Source: patent US20100248359A1 (Chugai, published 2010)
Changes are numbered by the printed parent chain. Names and notes keep the numbering of the source. Like-named read-outs stand apart in the source and are kept apart here. Each block holds one binder with its values, some of them ahead of it.

Tests used:
[1] = biological target: T1, full-length human GPC3 (human, UniProt P51654 25-554); assay: flow cytometry, antibody at 5 µg/mL, HepG2 cells
T1 construct: On CHO (DXB11) or SK-HEP-1 (SK-03) transfectants; also used here for the GPC3 on the hepatoma lines HepG2 and HuH-7; also called human glypican 3
T1 sequence (P51654 25-554 limits assumed): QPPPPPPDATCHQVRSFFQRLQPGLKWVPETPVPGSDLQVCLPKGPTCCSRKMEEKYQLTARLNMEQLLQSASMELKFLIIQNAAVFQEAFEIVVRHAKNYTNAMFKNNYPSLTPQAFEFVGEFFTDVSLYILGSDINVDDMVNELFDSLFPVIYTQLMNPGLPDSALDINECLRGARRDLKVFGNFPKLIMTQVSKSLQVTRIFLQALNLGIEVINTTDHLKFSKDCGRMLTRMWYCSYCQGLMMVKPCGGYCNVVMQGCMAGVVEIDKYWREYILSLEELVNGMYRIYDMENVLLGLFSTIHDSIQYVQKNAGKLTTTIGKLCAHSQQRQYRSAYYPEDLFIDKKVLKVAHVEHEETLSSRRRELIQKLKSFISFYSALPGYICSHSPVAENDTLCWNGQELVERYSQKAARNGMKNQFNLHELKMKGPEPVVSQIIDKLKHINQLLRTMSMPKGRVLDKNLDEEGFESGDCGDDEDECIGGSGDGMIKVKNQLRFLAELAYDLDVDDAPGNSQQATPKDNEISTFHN

[2] = biological target: T1, full-length human GPC3; assay: flow cytometry, antibody at 5 µg/mL, CHO cells expressing human GPC3 (column CHO/human GPC3)
[3] = biological target: T1, full-length human GPC3; assay: flow cytometry, antibody at 5 µg/mL, HuH-7 cells
[4] = biological target: T2, GC-3 (GST fusion of GPC3 Ala524 to Lys563) (human, UniProt P51654 524-563); assay: Western blotting of GST-fusion proteins
T2 construct: not shown: GST as encoded by pGEX-4T-3 (Amersham), N-terminal to the GPC3 peptide
T2 chain: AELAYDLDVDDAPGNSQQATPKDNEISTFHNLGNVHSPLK

[5] = biological target: T3, soluble form of GPC3 core protein (human, UniProt P51654 25-563); assay: ELISA on plate coated with soluble GPC3 core protein
T3 construct: not shown: His tag added to the C-terminus

[6] = biological target: T3, soluble form of GPC3 core protein; assay: competitive ELISA on coated soluble GPC3 core protein; labelled competitor biotin-M18D4;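 note: Biotin-labelled antibody added as 10 µL at 10 µg/mL for 1 h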
[7] = biological target: T3, soluble form of GPC3 core protein; assay: competitive ELISA on coated soluble GPC3 core protein; labelled competitor biotin-M11F1;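 note: Biotin-labelled antibody added as 10 µL at 10 µg/mL for 1 h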
[8] = biological target: T1, full-length human GPC3; assay: BIACORE; the form of GPC3 used is not given
[9] = biological target: T1, full-length human GPC3; assay: flow cytometry, antibody at 5 µg/mL, HepG2 cells; remark: listed apart in the source
[10] = biological target: T3, soluble form of GPC3 core protein; assay: competitive ELISA on coated soluble GPC3 core protein; labelled competitor biotin-M5B9;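 note: Biotin-labelled antibody added as 10 µL at 10 µg/mL for 1 h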
[11] = biological target: T1, full-length human GPC3; assay: flow cytometry, antibody at 5 µg/mL, CHO cells expressing human GPC3 (column CHO/human GPC3); remark: listed apart in the source
[12] = biological target: T3, soluble form of GPC3 core protein; assay: competitive ELISA on coated soluble GPC3 core protein; labelled competitor biotin-M6B1;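 note: Biotin-labelled antibody added as 10 µL at 10 µg/mL for 1 h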
[13] = biological target: T2, GC-3 (GST fusion of GPC3 Ala524 to …); assay: Western blotting of GST-fusion proteins, reducing SDS-PAGE
[14] = biological target: T1, full-length human GPC3; assay: flow cytometry, antibody at 5 µg/mL, HuH-7 cells; remark: listed apart in the source
[15] = biological target: T3, soluble form of GPC3 core protein; assay: competitive ELISA on coated soluble GPC3 core protein; labelled competitor biotin-M3C11;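 note: Biotin-labelled antibody added as 10 µL at 10 µg/mL for 1 h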
[16] = biological target: T3, soluble form of GPC3 core protein; assay: competitive ELISA on coated soluble GPC3 core protein; labelled competitor biotin-M10D2;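 note: Biotin-labelled antibody added as 10 µL at 10 µg/mL for 1 h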
[17] = biological target: T3, soluble form of GPC3 core protein; assay: ELISA on plate coated with soluble GPC3 core protein; remark: listed apart in the source
[18] = biological target: T3, soluble form of GPC3 core protein; assay: competitive ELISA on coated soluble GPC3 core protein; labelled competitor biotin-M1E7;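 note: Biotin-labelled antibody added as 10 µL at 10 µg/mL for 1 h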
[19] = biological target: T3, soluble form of GPC3 core protein; assay: competitive ELISA on coated soluble GPC3 core protein; labelled competitor biotin-L9G11;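 note: Biotin-labelled antibody added as 10 µL at 10 µg/mL for 1 h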
[20] = biological target: T3, soluble form of GPC3 core protein; assay: ELISA on plate coated with soluble GPC3 core protein; antibody from COS7 culture supernatant [middle left panel]
[21] = biological target: T3, soluble form of GPC3 core protein; assay: ELISA on plate coated with soluble GPC3 core protein; antibody from COS7 culture supernatant [lower left panel]
[22] = biological target: T3, soluble form of GPC3 core protein; assay: ELISA on plate coated with soluble GPC3 core protein; antibody from COS7 culture supernatant [upper right panel]
[23] = biological target: T3, soluble form of GPC3 core protein; assay: ELISA on GPC3 (the legend says only GPC3; the filing's ELISA uses plates coated with soluble GPC3 core protein) [lower panel]

FACS X-mode value of the histogram [1]: 6.5
FACS X-mode value of the histogram [2]: 7.1
FACS X-mode value of the histogram [3]: 3.8
binding result [4]: binds
EC50 [5]: 5.61 nM
B1: GC179 (antibody, V domains shown)
VH: EVQLVETGGGLVQPEGSLKLSCAASGFSFNINAMNWVRQAPGKGLEWVARIRSESNNYATYYGDSVKDRFTISRDDSQNMLYLQMNNLKTEDTAIYYCVREVTTSFAYWGQGTLVTVSA
VL: DIVMTQSAPSVPVTPGESVSISCKSSKSLLHSNGNTYLNWFLQRPGQSPQLLIYWMSNLASGVPDRFSGSGSGTAFTLRISRVEAEDVGVYYCMQHIEYPFTFGTGTKLEIK
notes: Mouse monoclonal from a mouse immunized with GC-3

FACS X-mode value of the histogram [1]: 7.9
FACS X-mode value of the histogram [2]: 5
FACS X-mode value of the histogram [3]: 1.5
EC50 [5]: 3.83 nM
B2: GC194 (antibody, V domains shown)
VH: EVQLVETGGGLVQPKGSLKLSCAASGFTFNASAMNWVRQAPGKGLEWVARIRSKSNNYAIYYADSVKDRFTISRDDSQSMLYLQMNNLKTEDTAMYYCVRDPGYYGNPWFAYWGQGTLVTVSA
VL: DIVMTQAAFSNPVTLGTSASISCRSSKSLLHSYDITYLYWYLQKPGQSPQLLIYQMSNLASGVPDRFSSSGSGTDFTLRISRVEAEDVGVYYCAQNLELPPTFGGGTKLEIK

Inhibition of the binding of indicated biotin-Mab to sGPC3 core (%) [6]: 10.3%
Inhibition of the binding of indicated biotin-Mab to sGPC3 core (%) [7]: 12%
Kd [8]: 0.3 nM
koff [8]: 6.5e-05 s⁻¹
kon [8]: 250000 M⁻¹ s⁻¹
FACS X-mode value of the histogram [9]: 59
Inhibition of the binding of indicated biotin-Mab to sGPC3 core (%) [10]: 9.1%
FACS X-mode value of the histogram [11]: 83
Inhibition of the binding of indicated biotin-Mab to sGPC3 core (%) [12]: 11.2%
binding result [13]: no binding
FACS X-mode value of the histogram [14]: 9
Inhibition of the binding of indicated biotin-Mab to sGPC3 core (%) [15]: 96.8%
Inhibition of the binding of indicated biotin-Mab to sGPC3 core (%) [16]: 39.9%
EC50 [17]: 0.12 nM
Inhibition of the binding of indicated biotin-Mab to sGPC3 core (%) [18]: 96.2%
Inhibition of the binding of indicated biotin-Mab to sGPC3 core (%) [19]: 33.1%
B3: M3C11 (antibody, human IgG1, kappa, V domains shown)
VH: EVQLVESGGGLVKPGGSLKLSCAASGFTFSRYAMSWVRQIPEKILEWVAAIDSSGGDTYYLDTVKDRFTISRDNANNTLHLQMRSLRSEDTALYYCVRQGGAYWGQGTLVTVSA
VL: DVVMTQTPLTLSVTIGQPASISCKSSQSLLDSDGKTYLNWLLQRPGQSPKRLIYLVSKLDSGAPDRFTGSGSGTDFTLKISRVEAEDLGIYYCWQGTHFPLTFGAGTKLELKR
notes: Mouse monoclonal from hybridoma

EC50 (read off the curve) [20]: ~0.03 µg/mL
B4: G34P (antibody, V domains shown)
VH: QVQLVQSGAEVKKPGASVKVSCKASGYTFTDYEMHWVRQAPGQGLEWMGALDPKTGDTAYSQKFKGRVTLTADKSTSTAYMELSSLTSEDTAVYYCTRFYSYTYWGQGTLVTVSS
VL: DVVMTQSPLSLPVTPGEPASISCRSSQSLVHSNPNTYLHWYLQKPGQSPQLLIYKVSNRFSGVPDRFSGSGSGTDFTLKISRVEAEDVGVYYCSQNTHVPPTFGQGTKLEIK
notes: also called modified humanized GC33 (H chain ver.k, L chain G34P)

FACS X-mode value of the histogram [1]: 52
FACS X-mode value of the histogram [2]: 82.7
FACS X-mode value of the histogram [3]: 8.4
binding result [4]: binds
EC50 [5]: 0.24 nM
B5: GC33 (antibody, V domains shown)
VH: QVQLQQSGAELVRPGASVKLSCKASGYTFTDYEMHWVKQTPVHGLKWIGALDPKTGDTAYSQKFKGKATLTADKSSSTAYMELRSLTSEDSAVYYCTRFYSYTYWGQGTLVTVSA
VL: B4 VL with S7T, T14S, P15L, E17D, P18Q, P34G, Q50K, V88L, Y92F, Q105S
notes: Mouse monoclonal from a mouse immunized with GC-3; also called GC33 antibody

EC50 (read off the curve) [21]: ~0.02 µg/mL
B6: G34V (antibody, V domains shown)
VH: B4 VH
VL: B4 VL with P34V
notes: also called modified humanized GC33 (H chain ver.k, L chain G34V)

EC50 (read off the curve) [22]: ~0.02 µg/mL
B7: modified humanized GC33 (H chain ver.k, L chain G34E) (antibody, human IgG1, V domains shown)
VH: B4 VH
VL: B4 VL with P34E
notes: COS7 supernatant; human IgG1/kappa

EC50 (read off the curve) [22]: ~0.02 µg/mL
B8: modified humanized GC33 (H chain ver.k, L chain G34H) (antibody, human IgG1, V domains shown)
VH: B4 VH
VL: B4 VL with P34H
notes: as for B7

EC50 (read off the curve) [21]: ~0.02 µg/mL
B9: modified humanized GC33 (H chain ver.k, L chain G34W) (antibody, human IgG1, V domains shown)
VH: B4 VH
VL: B4 VL with P34W
notes: as for B7

EC50 (read off the curve) [21]: ~0.02 µg/mL
B10: modified humanized GC33 (H chain ver.k, L chain G34Y) (antibody, human IgG1, V domains shown)
VH: B4 VH
VL: B4 VL with P34Y
notes: as for B7

EC50 (read off the curve) [20]: ~0.02 µg/mL
B11: modified humanized GC33 (H chain ver.k, L chain G34Q) (antibody, human IgG1, V domains shown)
VH: B4 VH
VL: B4 VL with P34Q
notes: as for B7

EC50 (read off the curve) [23]: ~0.03 µg/mL
B12: humanized GC33 H chain ver.i / L chain ver.a (antibody, V domains shown)
VH: B4 VH with K74E, T87R
VL: B4 VL with P34G

EC50 (read off the curve) [23]: ~0.03 µg/mL
B13: humanized GC33 H chain ver.h / L chain ver.a (antibody, V domains shown)
VH: B4 VH with Q6E
VL: B4 VL with P34G

EC50 (read off the curve) [22]: ~0.02 µg/mL
B14: modified humanized GC33 (H chain ver.k, L chain G34F) (antibody, human IgG1, V domains shown)
VH: B4 VH
VL: B4 VL with P34F
notes: as for B7

EC50 (read off the curve) [20]: ~0.02 µg/mL
B15: modified humanized GC33 (H chain ver.k, L chain G34N) (antibody, human IgG1, V domains shown)
VH: B4 VH
VL: B4 VL with P34N
notes: as for B7

EC50 (read off the curve) [23]: ~0.03 µg/mL
B16: GC33 mouse H chain variable region / humanized L chain ver.a (antibody, V domains shown)
VH: B5 VH
VL: B4 VL with P34G
notes: also called mouse/ver.a

FACS X-mode value of the histogram [1]: 12.2
FACS X-mode value of the histogram [2]: 15.5
FACS X-mode value of the histogram [3]: 2.4
binding result [4]: binds
EC50 [5]: 0.1 nM
B17: GC199 (antibody, V domains shown)
VH: QIQLEQSGPELKKPGETVKISCKASGYIFRDYSMHWVKQAPGKGLKWMGWINTETGEPTYADDFKGRFAFSLETSASTAYLQINNLKNEDTATYFCTSLYWGQGTLVTVSA
VL: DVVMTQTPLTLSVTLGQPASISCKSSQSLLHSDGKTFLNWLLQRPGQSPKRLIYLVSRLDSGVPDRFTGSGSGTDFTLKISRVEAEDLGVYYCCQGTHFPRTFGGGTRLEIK
notes: Mouse monoclonal from a mouse immunized with GC-3; also called GC199 antibody
